This series concerns the molecule itself. Kind of series: crystal structure; hanging drop vapor diffusion at ambient temperature; space group I222; solved by molecular replacement; asymmetric unit of two biological dimers; wild-type data to 2.7 Å, Cys426 data to 3.25 Å.

The values below come from publication PMC1810434, “Breakage-Reunion Domain of Streptococcus pneumoniae Topoisomerase IV: Crystal Structure of a Gram-Positive Quinolone Target” (PLoS ONE, 2007).

Changes are numbered by the printed parent chain. Numbers in names are those of the source.

B1: ParC55, 55.5 kDa N-terminal breakage-reunion domain of Streptococcus pneumoniae topoisomerase IV subunit A (ParC) (domain or fragment)
chain: MSNIQNMSLEDIMGERFGRYSKYIIQDRALPDIRDGLKPVQRRILYSMNKDSNTFDKSYRKSAKSVGNIMGNFHPHGDSSIYDAMVRMSQNWKNREILVEMHGNNGSMDGDPPAAMRYTEARLSEIAGYLLQDIEKKTVPFAWNFDDTEKEPTVLPAAFPNLLVNGSTGISAGYATDIPPHNLAEVIDAAVYMIDHPTAKIDKLMEFLPGPDFPTGAIIQGRDEIKKAYETGKGRVVVRSKTEIEKLKGGKEQIVIIEIPYEINKANLVKKIDDVRVNNKVAGIAEVRDESDRDGLRIAIELKKDANTELVLNYLFKYTDLQINYNFNMVAIDNFTPRQVGIVPILSSYIAHRREVILARSRFDKEKAEKRLHIVEGLIRVISILDEVIALIRASENKADAKENLKVSYDFTEEQAEAIVTLQLYRLTNTDVVVLQEEEAELREKIAMLAAIIGDERTMYNLMKKELREVKKKFATPRLSSLEDTAKALE
notes: ParC (topoisomerase IV subunit A), S. pneumoniae strain 7785, residues 1-490, with the substitution I489L needed for plasmid construction; also called wild-type ParC55; N-terminal ParC domain; source: E. coli, pET29a expression plasmid, purified by Ni2+-NTA chromatography; not shown: His6, C-terminal, kept
Regarding B1, the binding result was “binds”.

B2: ParC55 Cys426 (ParC55 with Arg426 changed to Cys) (domain or fragment)
chain: B1 chain with R426C
notes: PDB 2NOV holds the parent (wild-type ParC55); No entry of its own is named for the Cys426 data set; also called ParC Cys426; Cys426 mutant; source: E. coli, purified by Ni2+-NTA chromatography as for wild-type ParC55
With B2, the binding result is listed as “binds”.
